Test results: publication PMC8546341, “A Novel β-Glucosidase From Chryseobacterium scophthalmum 1433 for Efficient Rubusoside Production From Stevioside” (Frontiers in Microbiology, 2021)

How the values were obtained:
CsBGL = biological target: T1, CsBGL (Chryseobacterium scophthalmum, UniProt A0A8A3WQK4); test: inhibition of pNP-β-Glc hydrolysis, p-nitrophenol at […] nm; format: biochemical; conditions: substrate pNP-β-Glc 0.1–10 mM, glucose 0–80 mM, 50 mM sodium phosphate pH 7.4, 45 °C; mode not stated
T1 construct: gene bgl
T1 sequence (A0A8A3WQK4 19-775): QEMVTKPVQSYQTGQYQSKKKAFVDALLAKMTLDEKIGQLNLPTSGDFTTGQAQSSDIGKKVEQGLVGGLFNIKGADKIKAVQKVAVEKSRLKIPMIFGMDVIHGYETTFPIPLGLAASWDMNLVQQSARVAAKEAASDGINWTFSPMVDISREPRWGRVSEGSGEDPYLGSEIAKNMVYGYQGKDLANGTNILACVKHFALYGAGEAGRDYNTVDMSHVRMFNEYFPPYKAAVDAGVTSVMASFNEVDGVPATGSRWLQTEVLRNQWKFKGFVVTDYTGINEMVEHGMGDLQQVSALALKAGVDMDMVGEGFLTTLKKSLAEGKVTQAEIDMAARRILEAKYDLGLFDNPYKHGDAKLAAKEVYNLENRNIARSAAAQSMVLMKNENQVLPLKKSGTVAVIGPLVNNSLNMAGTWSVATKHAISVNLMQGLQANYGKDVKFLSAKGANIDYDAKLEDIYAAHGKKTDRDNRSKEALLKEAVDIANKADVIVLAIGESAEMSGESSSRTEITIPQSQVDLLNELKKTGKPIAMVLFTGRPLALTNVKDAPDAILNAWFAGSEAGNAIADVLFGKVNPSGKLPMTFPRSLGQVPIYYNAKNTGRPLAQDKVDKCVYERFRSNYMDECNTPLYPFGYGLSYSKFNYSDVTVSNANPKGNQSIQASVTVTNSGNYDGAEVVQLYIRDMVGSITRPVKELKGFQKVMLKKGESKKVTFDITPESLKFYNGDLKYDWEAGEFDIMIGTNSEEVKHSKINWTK

purified protein = substrate: O=[N+]([O-])c1ccc(O[C@@H]2O[C@H](CO)[C@@H](O)[C@H](O)[C@H]2O)cc1; test: purified protein; format: biochemical, Chryseobacterium scophthalmum; conditions: 50 mM sodium phosphate pH 7.4, 45 °C
[1] = substrate: C=C1C[C@@]23CC[C@H]4[C@@](C)(CCC[C@@]4(C)C(=O)O[C@@H]4O[C@H](CO)[C@@H](O)[C@H](O)[C@H]4O)[C@@H]2CC[C@]1(O[C@@H]1O[C@H](CO)[C@@H](O)[C@H](O)[C@H]1O[C@@H]1O[C@H](CO)[C@@H](O)[C@H](O)[C@H]1O)C3; test: initial velocity of stevioside hydrolysis; format: biochemical, Chryseobacterium scophthalmum; conditions: 50 mM sodium phosphate pH 6.5, 47.5 °C

`OC[C@H]1OC(O)[C@H](O)[C@@H](O)[C@@H]1O` (some centres unmarked) [glucose] was tested, and the Ki (CsBGL) was 16.4 mM.

B1: CsBGL (Chryseobacterium scophthalmum) (protein)
chain: QEMVTKPVQSYQTGQYQSKKKAFVDALLAKMTLDEKIGQLNLPTSGDFTTGQAQSSDIGKKVEQGLVGGLFNIKGADKIKAVQKVAVEKSRLKIPMIFGMDVIHGYETTFPIPLGLAASWDMNLVQQSARVAAKEAASDGINWTFSPMVDISREPRWGRVSEGSGEDPYLGSEIAKNMVYGYQGKDLANGTNILACVKHFALYGAGEAGRDYNTVDMSHVRMFNEYFPPYKAAVDAGVTSVMASFNEVDGVPATGSRWLQTEVLRNQWKFKGFVVTDYTGINEMVEHGMGDLQQVSALALKAGVDMDMVGEGFLTTLKKSLAEGKVTQAEIDMAARRILEAKYDLGLFDNPYKHGDAKLAAKEVYNLENRNIARSAAAQSMVLMKNENQVLPLKKSGTVAVIGPLVNNSLNMAGTWSVATKHAISVNLMQGLQANYGKDVKFLSAKGANIDYDAKLEDIYAAHGKKTDRDNRSKEALLKEAVDIANKADVIVLAIGESAEMSGESSSRTEITIPQSQVDLLNELKKTGKPIAMVLFTGRPLALTNVKDAPDAILNAWFAGSEAGNAIADVLFGKVNPSGKLPMTFPRSLGQVPIYYNAKNTGRPLAQDKVDKCVYERFRSNYMDECNTPLYPFGYGLSYSKFNYSDVTVSNANPKGNQSIQASVTVTNSGNYDGAEVVQLYIRDMVGSITRPVKELKGFQKVMLKKGESKKVTFDITPESLKFYNGDLKYDWEAGEFDIMIGTNSEEVKHSKINWTK
B1 was tested, and the Km (purified protein) was 1620 µM, the kcat (purified protein) was 16.77 s⁻¹ and the Km [1] was 1540 µM. For the same molecule, the kcat [1] was 248.59 s⁻¹.
